Test results from US20140302035A1 (MERRIMACK PHARMACEUTICALS, published 2014).

Target: T1, Human EpCAM-Fc-his tagged (human)
T1 construct: also called Recombinant polyhistidine-tagged EpCAM-Fc; recombinant EpCAM
Test: BLI (ForteBio Octet), antibody loaded on Protein A tips, recombinant polyhistidine-tagged EpCAM-Fc in solution

T1 sequence (chain, as listed by the source): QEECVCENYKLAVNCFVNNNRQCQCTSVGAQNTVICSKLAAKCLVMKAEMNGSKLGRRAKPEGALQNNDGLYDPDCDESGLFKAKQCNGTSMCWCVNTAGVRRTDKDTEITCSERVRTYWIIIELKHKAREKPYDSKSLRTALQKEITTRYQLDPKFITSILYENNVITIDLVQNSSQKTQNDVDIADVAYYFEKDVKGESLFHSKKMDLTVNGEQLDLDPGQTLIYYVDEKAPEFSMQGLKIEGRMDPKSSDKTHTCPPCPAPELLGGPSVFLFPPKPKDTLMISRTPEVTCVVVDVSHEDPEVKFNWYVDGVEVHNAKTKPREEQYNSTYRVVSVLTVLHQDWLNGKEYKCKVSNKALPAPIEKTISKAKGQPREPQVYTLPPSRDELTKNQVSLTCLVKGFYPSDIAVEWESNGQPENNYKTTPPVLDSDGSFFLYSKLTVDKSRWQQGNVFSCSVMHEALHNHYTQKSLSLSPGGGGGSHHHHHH

binding result: no binding
B1: Ab#2 (bispecific antibody, human IgG1, kappa)
heavy: QLQLQESGPGLVKPSETLSLTCTVSGGSISSSVYYWSWIRQPPGKGLEWIGVIYPSGNTYYSPSLKSRVTISVDTSKNQFSLKLSSVTAADTAVYYCARTIYDLFDIWGQGTMVTVSSASTKGPSVFPLAPSSKSTSGGTAALGCLVKDYFPEPVTVSWNSGALTSGVHTFPAVLQSSGLYSLSSVVTVPSSSLGTQTYICNVNHKPSNTKVDKKVEPKSCDKTHTCPSCPAPEFLGGPSVFLFPPKPKDTLMISRTPEVTCVVVDVSQEDPEVQFNWYVDGVEVHNAKTKPREEQFNSKYRVVSVLTVLHQDWLNGKEYKCKVSNKGLPSSIEKTISKAKGQPREPQVYTLPPSREEMTKNQVSLSCAVKGFYPSDIAVEWESNGQPENNYKTTPPVLDSDGSFFLVSKLTVDKSRWQQGNVFSCSVMHEALHNHYTQKSLSLSKSCDKTGGGGSGGGGSGGGGSGGGGSGGGGSGGGGSGGGGSGGGGSCPSCPAPEFLGGPSVFLFPPKPKDTLMISRTPEVTCVVVDVSQEDPEVQFNWYVDGVEVHNAKTKPREEQFNSDYRVVSVLTVLHQDWLNGKEYKCKVSNKGLPSSIEKTISKAKGQPREPQVYTLPPSREEMTKNQVSLWCLVKGFYPSDIAVEWESNGQPENNYKTTPPVLDSDGSFFLYSKLTVDKSRWQQGNVFSCSVMHEALHNHYTQKSLSLSGECGGGGSGGGGSQVQLVQSGSELKKPGESVKVSCKASGYTFTNYGMHWVRQAPGQGLKWMGWINTYTGESTYADDFKGRFAFSLDTSASTAYLQISSLKAEDTAVYFCARFAIKGDYWGQGTLVTVSSASTGGGGSGGGGSGGGGSGGGGSDIVMTQSPLSLPVTPGEPASISCRSTKSLLHSDGITYLYWYLQKPGQSPQLLIYQLSNLASGVPDRFSSSGSGTDFTLKISRVEAEDEGVYYCAQNLEIPYTFGQGTKVEIK
light: DIQMTQSPSSVSASVGDRVTITCRASQGISSWLAWYQQKPGKAPKLLIYAASSLQSGVPSRFSGSGSGTDFTLTISSLQPEDFATYYCLQANSFPPTFGGGTKVEIKRTVAAPSVFIFPPSDEQLKSGTASVVCLLNNFYPREAKVQWKVDNALQSGNSQESVTEQDSKDSTYSLSSTLTLSKADYEKHKVYACEVTHQGLSSPVTKSFNRGEC
notes: Anti-c-Met Fab / tandem Fc / anti-EpCAM scFv TFcBA; also called Antibody #2
